Source: publication doi:10.1101/2021.08.28.457928 (bioRxiv, 2021)

B1: isolated FERM domain of human SNX27 (domain or fragment, UniProt Q96L92 269-531, looked up)
chain: YNGVSDVELRVALPDGTTVTVRVKKNSTTDQVYQAIAAKVGMDSTTVNYFALFEVISHSFVRKLAPNEFPHKLYIQNYTSAVPGTCLTIRKWLFTTEEEILLNDNDLAVTYFFHQAVDDVKKGYIKAEEKSYQLQKLYEQRKMVMYLNMLRTCEGYNEIIFPHCACDSRRKGHVITAISITHFKLHACTEEGQLENQVIAFEWDEMQRWDTDEEGMAFCFEYARGEKKPRWVKIFTPYFNYMHECFERVFCELKWRKENIFQM
notes: FERM domain of human SNX27; The AlphaFold2 modelling took the FERM domain as residues 269 to 531; also called hSNX27_(FERM)

Tests used:
Conditions in all cases: both partners purified
full-length mouse SNX27 = molecular target: T1, full-length mouse SNX27 (mouse, UniProt Q3UHD6 1-539); assay: ITC; 800 μM SNX1 or SNX2 peptide titrated into 20 μM full-length mouse SNX27; 25 °C; 50 mM HEPES pH 7.5, 200 mM NaCl, 5% glycerol, 1 mM β-ME with 1:10 peptide buffer (100 mM Tris-HCl pH 10.6); single-site model
T1 construct: SNX27, mouse, full length; Vector pMCSG7, ligation independent cloning; also called mSNX27FL

[1] = molecular target: T2, full-length mouse SNX1 with an N-terminal His-tag (mouse, UniProt Q9WV80 1-522); assay: ITC; 800 μM hSNX27 FERM titrated into 20 μM GST-mSNX1(1-139) or His-SNX1FL; 25 °C; 50 mM HEPES pH 7.5, 200 mM NaCl, 5% glycerol, 1 mM β-ME; single-site model
T2 construct: SNX1, mouse, full length; Vector pMW172Kan; also called mSNX1FL; His-SNX1FL; source: E. coli BL21 CodonPlus (DE3), purified (TALON or Ni-NTA, SEC); not shown: His-tag, N-terminal, kept

[2] = molecular target: B1; assay: as above
[3] = molecular target: T3, human SNX27 full length, wild type (human, UniProt Q96L92 1-541); assay: ITC; 600 μM SNX1(75-92) peptide titrated into 20 μM hSNX27 wild type or single-site mutant; 25 °C; 50 mM HEPES pH 7.5, 200 mM NaCl, 5% glycerol, 1 mM β-ME; single-site model
T3 construct: SNX27, human, full length; also called hSNX27FL; hSNX27 WT

human SNX27(K496D) = molecular target: T4, human SNX27(K496D) (human, UniProt Q96L92 1-541, K496D); assay: as above
T4 construct: SNX27, human, full length; the text prints R496D, the methods and the legend K496D; also called hSNX27 K496D; SNX27(R496D)

Kd (full-length mouse SNX27) [µM]	Binder	further results
33.4	EAGDSDTEGEDIFTGAA (SNX1, human, residues 35 to 51; also called first aDLF motif of human SNX1; source: synthetic peptide (Genscript)) [SNX1_(35-51) peptide]	
	B1	Kd [1]: 41 µM
22.6	TEVVLDDDREDLFAEATEEVS (SNX2, human, residues 62 to 82; also called SNX2 62 to 82; second aDLF motif of SNX2; source: synthetic peptide (Genscript)) [SNX2_(62-82) peptide]	
37.8	TDFEDLEDGEDLFTSTVS (SNX2, human, residues 16 to 33; also called SNX2 16 to 33; first aDLF motif of SNX2; source: synthetic peptide (Genscript)) [SNX2_(16-33) peptide]	
	GST-mSNX1(1-139) (domain or fragment, mouse, UniProt Q9WV80 1-139, looked up, SNX1, mouse, residues 1 to 139; Vector pGEX4T-2, thrombin-cleavable GST; named GST-mSNX1(1-139) in the ITC; also called N-terminal extension of mouse SNX1; source: E. coli BL21 CodonPlus (DE3), purified (glutathione Sepharose, SEC); not shown: GST, N-terminal, kept) MASGGGGCSASERLPPPFPGMDPESEGAAGASEPEAGDSDTEGEDIFTGAAAATKPQSPKKTTSLFPIKNGSKENGIHEDQDQEPQDLFADATVELSLDSTQNNQKTMPGKTLTSHSPQEATNSPKPQPSYEELEEEEQ	Kd [2]: 39.1 µM
13.3	NGIHEEQDQEPQDLFADA (SNX1, human, residues 75 to 92; also called SNX1 75 to 92; hSNX1_(75-92); source: synthetic peptide (Genscript)) [SNX1_(75-92) peptide]	Kd [3]: 12.7 µM; Kd (human SNX27(K496D)): 56.4 µM
